Article doi:10.1101/2022.07.18.499583

Biological target: NSP1 (SARS-CoV-2, UniProt P0DTD1 1-180)
Assay: BLI

B1: SL2 (unmodified) (structured_RNA)
RNA: AACCAACUUUCGAUCUCUUGUAGAUCUGUUCU
  Kd: 300 ± 54 nM
